The experiment has as its target T1, GAL4BD:CKI2(590-922) (Arabidopsis thaliana).
T1 construct: Yeast two-hybrid bait; Any linker or tag from the vector is not described; also called AT-CKI2(590-922); pRM430
In words: yeast two-hybrid. An excerpt: Clones representing two independent genes, ARABIDOPSIS HISTIDINE PHOSPHOTRANSFER PROTEIN 3 (AHP3, At5G39340) and At3G28690, a putative serine/threonine protein kinase, were identified from the library screen with GAL4BD:CKI2(590-922). AHPs are the described signaling targets of canonical receptor histidine kinases, such as CRE1, AHK1 and ETR1 (Grefen and Harter, 2004). […] At3G28690 is homologous to the previously published ARABIDOPSIS PROTEIN KINASE 1 (APK1) (Hirayama and Oka, 1992) and APK2 (Ito, et al., 1997) and is designated APK3. […] APK3 has been classified as a Receptor Like Cytoplasmic Kinase (RLCK) VII (Family 1.2.2) in Arabidopsis. […] Its use in modulation of cytokinin-dependent growth responses is being pursued through both transgenic and mutant analysis.
The yeast two-hybrid assays discussed in Example 1 were conducted as follows. Polyadenylated mRNA was isolated from Arabidopsis aerial tissue using a FastTrack™ mRNA kit (Invitrogen, Carlsbad, Calif., USA). First strand cDNA was created using a cDNA synthesis kit (Stratagene, La Jolla, Calif., USA), subsequently cloned into pGADT7 (Clontech, Palo Alto, Calif., USA), and the cDNA library was transformed into the yeast strain AH109 (Clontech).

B1: APK3(115-476) (other)
chain: MFNDLKLATRNFRPESLLGEGGFGCVFKGWIEENGTAPVKPGTGLTVAVKTLNPDGLQGHKEWLAEINFLGNLVHPSLVKLVGYCMEEDQRLLVYEFMPRGSLENHLFRRTLPLPWSVRMKIALGAAKGLAFLHEEAEKPVIYRDFKTSNILLDGEYNAKLSDFGLAKDAPDEKKSHVSTRVMGTYGYAAPEYVMTGHLTTKSDVYSFGVVLLEILTGRRSVDKSRPNGEQNLVEWVRPHLLDKKRFYRLLDPRLEGHYSIKGAQKATQVAAQCLNRDSKARPKMSEVVEALKPLPNLKDFASSSSSFQTMQPVAKNGVRTQGGGFVSRNGPPMRSLSSLNLPQASPYRYARQSPKPKGKEP
notes: Second truncated APK3 tested as a fusion protein in the two-hybrid assay; also called second truncated APK3 protein; At3G28690; not shown: two-hybrid fusion partner
On to B1, for which the binding result is “no binding”.

B2: full-length APK3 fusion protein (other)
chain: MATKLESFKVVEKLGVEKGEKGKMMSKKKNVKKDGDESESGFWFRFKFIFSCISSRSKVDSSMNATAVIAEPKKVIEKLEGHPAPTKDTGCAESGSSTPLMSGELKYSSKLRIFMFNDLKLATRNFRPESLLGEGGFGCVFKGWIEENGTAPVKPGTGLTVAVKTLNPDGLQGHKEWLAEINFLGNLVHPSLVKLVGYCMEEDQRLLVYEFMPRGSLENHLFRRTLPLPWSVRMKIALGAAKGLAFLHEEAEKPVIYRDFKTSNILLDGEYNAKLSDFGLAKDAPDEKKSHVSTRVMGTYGYAAPEYVMTGHLTTKSDVYSFGVVLLEILTGRRSVDKSRPNGEQNLVEWVRPHLLDKKRFYRLLDPRLEGHYSIKGAQKATQVAAQCLNRDSKARPKMSEVVEALKPLPNLKDFASSSSSFQTMQPVAKNGVRTQGGGFVSRNGPPMRSLSSLNLPQASPYRYARQSPKPKGKEP
notes: Full-length APK3 tested as a fusion protein in the two-hybrid assay; also called AtAPK3; At3G28690; not shown: two-hybrid fusion partner
For the molecule B2, the binding result was “no binding”.

These data come from patent US20090235392A1 (PIONEER HI BRED INTERNATIONAL, published 2009).
